Reference: the Human Domainome abundance scans (Beltran et al. 2025)
± gives the uncertainty stated by the source.

B1: Nucleosome-remodeling factor subunit BPTF, residues 2862 to 2918; numbered along this chain, Q12830 (parent)
chain: TKKDTKLYCICKTPYDESKFYIGCDRCQNWYHGRCVGILQSEAELIDEYVCPQCQST
B2: Cold shock protein CspB, residues 1 to 66; numbered along this chain, P41016 (parent)
chain: MQRGKVKWFNNEKGYGFIEVEGGSDVFVHFTAIQGEGFKTLEEGQEVSFEIVQGNRGPQAANVVKL

Variants of: B1
Assay: abundance fitness (aPCA) (normalised: wild type 0, dead -1); higher = more abundant; growth selection in yeast, the domain comes from the species named
Details: Homo sapiens

Variant | abundance fitness
K3V | -0.009 ± 0.073
K3N | -0.379 ± 0.15
K3Q | -0.032 ± 0.14
K3F | -0.041 ± 0.11
K3D | -0.097 ± 0.16
D4V | -0.215 ± 0.061
D4T | -0.124 ± 0.066
D4E | -0.005 ± 0.1
D4G | -0.163 ± 0.063
D4K | -0.005 ± 0.086
D4Y | -0.154 ± 0.073
D4H | -0.195 ± 0.06
D4N | -0.087 ± 0.066
D4L | -0.238 ± 0.059
D4C | -0.316 ± 0.087
D4A | -0.18 ± 0.062
D4F | -0.226 ± 0.077
D4P | -0.112 ± 0.074
D4S | -0.008 ± 0.055

Variant | abundance fitness
D4R | -0.446 ± 0.062
D4I | -0.179 ± 0.065
D4M | -0.088 ± 0.11
I10R | -0.368 ± 0.072
I10E | -0.129 ± 0.089
I10M | -0.252 ± 0.11
I10D | -0.278 ± 0.11
I10Q | -0.472 ± 0.1
I10S | -0.387 ± 0.084
I10P | -0.395 ± 0.096
I10W | -0.398 ± 0.096
I10N | -0.446 ± 0.18
I10H | -0.084 ± 0.17
I10F | -0.307 ± 0.11
I10C | -0.245 ± 0.1
I10Y | -0.234 ± 0.11
I10G | -0.387 ± 0.073
I10V | -0.218 ± 0.071
I10T | -0.249 ± 0.099

Variant | abundance fitness
I10K | -0.218 ± 0.13
K6V | -0.161 ± 0.07
K6P | 0.034 ± 0.061
K6A | 0.069 ± 0.072
K6E | -0.042 ± 0.15
K6L | -0.085 ± 0.055
K6H | -0.057 ± 0.057
K6R | -0.086 ± 0.071
K6F | -0.278 ± 0.067
K6G | -0.071 ± 0.081
K6C | -0.161 ± 0.089
K6D | -0.062 ± 0.084
K6T | 0.008 ± 0.061
K6N | -0.045 ± 0.058
K6Q | -0.032 ± 0.081
K6M | -0.013 ± 0.078
K6S | -0.035 ± 0.057
K6I | -0.08 ± 0.06

Variants of: B2
Assay: as above
Details: Bacillus caldolyticus

Variant | abundance fitness
G37C | -0.049 ± 0.048
G37D | -0.133 ± 0.074
G37E | -0.05 ± 0.043
T31F | -0.431 ± 0.052
T31M | -0.13 ± 0.044
E12L | 0.017 ± 0.029
E12C | -0.004 ± 0.049
E46Q | -0.012 ± 0.051
E46G | -0.017 ± 0.04
E46K | -0.004 ± 0.055
S24V | -0.016 ± 0.039
S24I | -0.033 ± 0.081
G16C | -0.861 ± 0.06
G16F | -0.937 ± 0.071
G16D | -0.927 ± 0.1
G16Y | -0.946 ± 0.099
M1A | -0.046 ± 0.047
M1H | 0.016 ± 0.18
R3E | -0.019 ± 0.041
G22Y | -0.063 ± 0.062
G4P | -0.571 ± 0.035
G4K | -0.654 ± 0.041
V26I | -0.017 ± 0.045

Variant | abundance fitness
V26H | -0.132 ± 0.075
F38L | -0.086 ± 0.027
V47S | -0.866 ± 0.38
R56S | -0.088 ± 0.038
R56Y | -0.131 ± 0.065
N55K | 0.018 ± 0.15
A60G | -0.171 ± 0.037
A60T | -0.487 ± 0.043
A60N | -1.08 ± 0.21
E36S | -0.007 ± 0.036
V63I | -0.126 ± 0.054
V63C | 0.009 ± 0.083
Q2T | 0.029 ± 0.056
Q2A | -0.003 ± 0.046
E50Y | 0.005 ± 0.059
E50D | 0.016 ± 0.065
V28M | -0.153 ± 0.055
V28I | -0.048 ± 0.05
F30L | -0.103 ± 0.027
G35P | -0.172 ± 0.045
G54N | -0.11 ± 0.12
G54L | -0.131 ± 0.052
H29Q | -0.174 ± 0.15

Variant | abundance fitness
H29V | -0.506 ± 0.28
K7R | -0.045 ± 0.034
K7H | -0.088 ± 0.046
K7V | -0.034 ± 0.028
A61R | 0.015 ± 0.035
F9P | -0.956 ± 0.069
F9N | -0.854 ± 0.11
F9M | -0.233 ± 0.045
F9G | -0.939 ± 0.09
V6M | -0.104 ± 0.059
V6Q | -0.824 ± 0.066
V6H | -0.863 ± 0.084
D25S | -0.053 ± 0.032
D25T | -0.073 ± 0.041
D25F | -0.251 ± 0.054
L41D | -0.554 ± 0.069
N11F | -0.052 ± 0.07
K13D | -0.09 ± 0.048
K13F | -0.1 ± 0.057
K13L | 0.014 ± 0.027
K13H | 0 ± 0.084
K13C | -0.071 ± 0.062
G44A | -0.049 ± 0.037

Variant | abundance fitness
G44W | -0.111 ± 0.033
Q59W | -0.029 ± 0.036
Q59A | -0.003 ± 0.031
Q53W | 0.007 ± 0.052
E42D | 0.004 ± 0.072
E42P | -0.043 ± 0.042
V52W | -0.053 ± 0.048
V52S | -0.018 ± 0.039
V52R | 0.009 ± 0.032
V52Q | -0.001 ± 0.054
G57F | -0.237 ± 0.052
G57H | -0.195 ± 0.061
G57A | -0.145 ± 0.042
G57D | -0.249 ± 0.051
F27M | -0.169 ± 0.049
I33V | -0.024 ± 0.033
I33Y | -0.527 ± 0.069
S48E | 0.027 ± 0.054
E19N | -0.003 ± 0.083
E19R | 0.008 ± 0.037
V64C | 0.032 ± 0.07
V64D | -0.057 ± 0.072
V64Q | 0.032 ± 0.088

Variant | abundance fitness
V64Y | -0.054 ± 0.059
F17H | -0.151 ± 0.065
F17I | -0.128 ± 0.063
F17V | -0.165 ± 0.027
E43H | 0.03 ± 0.087
T40F | -0.009 ± 0.055
P58F | -0.046 ± 0.055
P58E | -0.017 ± 0.058
P58G | -0.082 ± 0.039
Y15G | -0.285 ± 0.037
Y15V | -0.155 ± 0.035
K5P | -0.22 ± 0.041
I18T | -0.721 ± 0.048
G23M | 0 ± 0.048
G23R | 0.028 ± 0.037
G23L | -0.003 ± 0.027
G23H | -0.053 ± 0.08
L66H | -0.214 ± 0.11
L66A | -0.055 ± 0.065
